In patent US9173950B2, “Vitamin D-ghrelin conjugates” (Extend Biosciences, Inc., priority 2012, dated 2015):
Read-outs that look alike come from different tables or passages of the source. Each block holds one molecule with its values, some of them ahead of it.

What was measured:
[1] = Pharmacokinetics of rGhrelin and rGhrelin-carrier conjugate after IV injection, plasma ELISA; type: in vivo, Sprague Dawley rats; conditions: 0.1 mg/kg IV
Procedure: Pharmacokinetics of rGhrelin (SEQ ID NO:6) or the rGhrelin-carrier conjugate was studied in Sprague Dawley rats. Briefly, 0.1 mg/kg of each molecule was injected separately into the rats by intravenous (IV) injection. Samples of plasma were collected at 30 mins, 60 mins, 120 mins, 240 mins, 360 mins, 24 hrs and 48 hrs. Samples were analyzed using a commercial ELISA kit validated for analyzing rGhrelin from rat plasma (Millipore, Cat. #EZRGRT-91K). […] Thus, ghrelin in a conjugated form is a useful therapeutic for the treatment of ghrelin-responsive diseases such as cachexia, anorexia and frailty in the elderly.

[2] = target: T1, GHS-R (Homo sapiens, UniProt Q92847); assay: Cell-based ghrelin receptor agonist assay, calcium flux (FLIPR) in GHS-R-expressing CHO-K1 cells; conditions: in the presence of 10% serum that contains DBP
T1 construct: host or cells: CHO-K1
T1 sequence (Q92847 whole entry, species assumed): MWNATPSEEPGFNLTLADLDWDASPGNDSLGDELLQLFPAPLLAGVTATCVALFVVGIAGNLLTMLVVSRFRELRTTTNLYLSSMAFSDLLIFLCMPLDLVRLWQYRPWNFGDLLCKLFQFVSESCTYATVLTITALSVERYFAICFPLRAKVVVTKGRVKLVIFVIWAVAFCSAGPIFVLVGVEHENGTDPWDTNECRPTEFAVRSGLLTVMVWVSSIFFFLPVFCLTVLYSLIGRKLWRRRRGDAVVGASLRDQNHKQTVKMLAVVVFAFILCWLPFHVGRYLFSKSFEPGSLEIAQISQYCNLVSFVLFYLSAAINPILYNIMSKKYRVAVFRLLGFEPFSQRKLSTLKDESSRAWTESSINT
Procedure: The test compounds were added to GHS-R-expressing CHO-K1 cell cultures. […] The activity was measured by a calcium flux-based assay developed by GenScript USA Inc. for the FLIPR™ (Fluorescence Imaging Plate Reader) high-throughput cellular screening instrument.
CHO-K1 cells expressing GHS-R were cultured in Ham's F12 supplemented with 10% fetal bovine serum, 500 mg/mL G418 and were passaged in order to maintain optimal cell health. The cells were seeded in a 384-well black-wall, clear-bottom plate at a density of 20,000 cells per well in 20 μL of growth medium 18 hours prior to the assay and maintained at 37° C./5% CO2. […] The intracellular calcium levels in the cells were measured for 20 seconds using the FLIPR™ instrument prior to addition of the test articles. […] Changes in intracellular calcium levels were measured for an additional 100 sec (21 to 120 seconds).
The average value of the 20 second reading (1 to 20 seconds) was calculated as the baseline reading and the relative fluorescent units (ΔRFU) intensity values were calculated with the maximal fluorescent units (21 to 120 seconds) subtracting the average value of baseline reading. […]
The % activation of compound was calculated using the following equation: % activation=(ΔRFUCompound−ΔRFUBackground)/(ΔRFUAgonist control−ΔRFUBackground)}*100% activation was then plotted as a function of the log of the cumulative doses of compounds. […]

[3] = human, in vivo; cited from earlier work
[4] = Pharmacokinetics of FGF21 and FGF21-carrier conjugate after SC injection, plasma ELISA; type: in vivo, Sprague Dawley rats; conditions: 0.1 mg/kg SC
Procedure: Pharmacokinetics of FGF21 (SEQ ID NO:3) or the FGF21-carrier conjugate was studied in Sprague Dawley rats. Briefly, 0.1 mg/kg of each molecule was injected separately into the rats by SC injection. Samples of plasma were collected at 30 mins, 60 mins, 120 mins, 240 mins, 360 mins, 24 hrs and 48 hrs. Samples were analyzed using a commercial ELISA kit validated for FGF21 (Millipore, Cat. #EZHFGF21-19K).

Molecule: CCCCCCCC(=O)OC[C@H](NC(=O)[C@H](CO)NC(=O)CN)C(=O)N[C@@H](Cc1ccccc1)C(=O)N[C@@H](CC(C)C)C(=O)N[C@@H](CO)C(=O)N1CCC[C@H]1C(=O)N[C@@H](CCC(=O)O)C(=O)N[C@@H](Cc1cnc[nH]1)C(=O)N[C@@H](CCC(N)=O)C(=O)N[C@@H](CCCNC(=N)N)C(=O)N[C@H](C(=O)N[C@@H](CCC(N)=O)C(=O)N[C@@H](CCC(N)=O)C(=O)N[C@@H](CCCNC(=N)N)C(=O)N[C@@H](CCCCN)C(=O)N[C@@H](CCC(=O)O)C(=O)N[C@@H](CO)C(=O)N[C@@H](CCCCN)C(=O)N[C@@H](CCCCN)C(=O)N1CCC[C@H]1C(=O)N1CCC[C@H]1C(=O)N[C@@H](C)C(=O)N[C@@H](CCCCN)C(=O)N[C@@H](CC(C)C)C(=O)N[C@@H](CCC(N)=O)C(=O)N1CCC[C@H]1C(=O)N[C@@H](CCCNC(=N)N)C(=O)O)C(C)C [ghrelin]
half-life [3]: 11 min

B1: FGF21-carrier conjugate: Modified FGF21 (SEQ ID NO:3) conjugated through its free cysteine to the Vitamin D3-PEG-maleimide carrier of Example 1 (conjugate)
chain: MGSHHHHHHSSGENLYFQGHPCPDSSPLLQFGGQVRQRYLYTDDAQQTEAHLEIREDGTVGGAADQSPESLLQLKALKPGVIQILGVKTSRFLCQRPDGALYGSLHFDPEACSFRELLLEDGYNVYQSEAHGLPLHLPGNKSPHRDPAPRGPARFLPLPGLPPALPEPPGILAPQPPDVGSSDPLSMVEPSQGRSPSYASP
modifications: Vitamin D3-PEG-maleimide carrier
area under the curve (AUC) ([4]; Sprague Dawley rats, plasma): 1047.98 ng·h/mL
average Cmax ([4]; Sprague Dawley rats, plasma): 143.526 ng/mL
increase in bioavailability (ratio of average Cmax, conjugate vs FGF21) ([4]; rats): 380 fold
increase in drug exposure (ratio of mean AUC, conjugate vs FGF21) ([4]; rats): 675 fold

More lines, main results first:

interference in receptor binding and activation [2]: No interference
Molecule: rGhrelin-carrier conjugate: Rat ghrelin peptide (SEQ ID NO:6) conjugated via free cysteine to the Vitamin D3-PEG-maleimide carrier of Example 1 (GSSFLSPEHQKAQQRKESKKPPAKLQPRC; Vitamin D3-PEG-maleimide carrier)
half-life (WinNonLin) ([1]; Sprague Dawley rats, plasma): 480 min
improvement in half-life vs rGhrelin ([1]; rats): 22 fold

half-life ([1]; rat, in vivo, Sprague Dawley rats, plasma, read-out: half-life (WinNonLin) (converted)): 22.2 min
Molecule: CCCCCCCC(=O)OC[C@H](NC(=O)[C@H](CO)NC(=O)CN)C(=O)N[C@@H](Cc1ccccc1)C(=O)N[C@@H](CC(C)C)C(=O)N[C@@H](CO)C(=O)N1CCC[C@H]1C(=O)N[C@@H](CCC(=O)O)C(=O)N[C@@H](Cc1c[nH]cn1)C(=O)N[C@@H](CCC(N)=O)C(=O)N[C@@H](CCCCN)C(=O)N[C@@H](C)C(=O)N[C@@H](CCC(N)=O)C(=O)N[C@@H](CCC(N)=O)C(=O)N[C@@H](CCCNC(=N)N)C(=O)N[C@@H](CCCCN)C(=O)N[C@@H](CCC(=O)O)C(=O)N[C@@H](CO)C(=O)N[C@@H](CCCCN)C(=O)N[C@@H](CCCCN)C(=O)N1CCC[C@H]1C(=O)N1CCC[C@H]1C(=O)N[C@@H](C)C(=O)N[C@@H](CCCCN)C(=O)N[C@@H](CC(C)C)C(=O)N[C@@H](CCC(N)=O)C(=O)N1CCC[C@H]1C(=O)N[C@@H](CCCNC(=N)N)C(=O)N[C@@H](CS)C(=O)O [rGhrelin, reference compound]
